41 sequences from the nanobody polyreactivity screen of Harvey et al. (2022) can be followed below.

This data set can be described thus: yeast display, Sf9 membrane polyspecificity reagent, FACS + sequencing; frameworks hold sequencing errors. The method, boiled down:
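After 36–48 hours of galactose induction, yeast (Saccharomyces cerevisiae BJ5465) displaying a synthetic nanobody library were stained at 4 °C for 1 hour with 10% biotinylated, detergent-solubilized Sf9 membrane reagent. Streptavidin microbeads enriched the stained cells before FACS sorting into low and high (top ~1%) gates on anti-HA and streptavidin fluorescence. Each clone's polyreactivity label reflects its gate of origin.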
In the case of “QVQLVESGGGLVQAGGSLRLSCAASGRTFRLNAMGWYRQAPGKERELVAAITSSGGSTYYADSVKGRFTISRDNAKNTVYLQLNSLKPEDTAVYYCARRQGYGVRSIRWGDYWGQGTQVTVSS”, the “polyreactivity (PSR sort gate)” value was “high polyreactivity”.

As to “QVQLVESGGGLVQAGGSLRLSCAASGRTFRLYAMGWDRPAPGKERELVAAITRGGRTTYADSVKGRFTISRDNAKNTVYLQMNSLKPEDTAVYYCAARYVERHTDYYYWGQGTQVTVSS”, the “polyreactivity (PSR sort gate)” value is recorded as “low polyreactivity”.

In the case of “QVQLVESGGGLVQAGGSLRLSCAASGRTFRLYAMGWYREAPGKERELVAAISYSGGSTYYADSVKGRFTISRDNAKNTVYLPMNSLKPEDTAVYYCAAYSGYYGGDDYWGQGTQVTVSS”, the “polyreactivity (PSR sort gate)” value is “high polyreactivity”.

In the case of “QVQLVESGGGLVQAGGSLRLSCAASGRTFRLYAMGWYRQAPGKERELVAAIRSGGSTNYADSVKGRFTISRDNAKNTVYLQMNSLKPEDTAVYYCAVDGYFFQGPYYYWGQGTQVTVSS”, the “polyreactivity (PSR sort gate)” value is on record as “low polyreactivity”.

As for “QVQLVESGGGLVQAGGSLRLSCAASGRTFRNNAMGLCRQAPGKEREFVAVISNTGGSTYYADSVKGRFTISRDNAKNTVYLQMNSLKPEDTAVYYCAVRPRYSQYYYWGQGTQVTVSS”, the “polyreactivity (PSR sort gate)” value is “high polyreactivity”.

Turning to “QVQLVESGGGLVQAGGSLRLSCAASGRTFRPYAMGWYRQAPGKERELVAAISSRGSSTYYADSVKGRFTISRDNAKNNVYLQMNSLKPEDTAVYYCAARSYWGGLRYDYWGQGTQVTVSS”, the “polyreactivity (PSR sort gate)” value is recorded as “high polyreactivity”.

Turning to “QVQLVESGGGLVQAGGSLRLSCAASGRTFRPYAMGWYRQAPGKERELVAAITGGTRTYYADSVKGRFTISRDNAKNTVYLQMNSLKPEDTAVYYCAKGDFFSKHDYLGQGTQVTVSS”, the “polyreactivity (PSR sort gate)” value is “low polyreactivity”.

Consider “QVQLVESGGGLVQAGGSLRLSCAASGRTFRPYAMGWYRQAPGKERELVAAITRSGGSTYYADSVKGRFTISRDNAKNTVYLQMNSLKPEDTAVYYCAAYNTYSDTYDYWGQGTQVTVSS”, for which the “polyreactivity (PSR sort gate)” value is on record as “low polyreactivity”.

With “QVQLVESGGGLVQAGGSLRLSCAASGRTFRQYAMGWYRQAPGKERELVADISSGGSTYYADSVKGRFTISRDNAKNTVYLKLNRLKPEDTAVYYCNKVSSGRYGSRSFDYWGQGTQVTVSS”, the “polyreactivity (PSR sort gate)” value is “low polyreactivity”.

Turning to “QVQLVESGGGLVQAGGSLRLSCAASGRTFRRNAMGWYRQAPGKERELVAAISWRGVSTYYADSVKGRFTISRDNAKNTVYLQMNSLKPEDTAVYYCAVDFLYTRRDYWGQGTQVTVSS”, the “polyreactivity (PSR sort gate)” value was “high polyreactivity”.

Regarding “QVQLVESGGGLVQAGGSLRLSCAASGRTFRRYAMGWYRQAPGKEREFVAAIRYSGGNTYYADSVKGRFTISRDNAKNTVYLQMNSLKPEDTAVYYCAARTYGKYRYSTYYYWGQGTQVTVSS”, the “polyreactivity (PSR sort gate)” value was “low polyreactivity”.

“QVQLVESGGGLVQAGGSLRLSCAASGRTFRRYAMGWYRQAPGKERELVAAISRGANTNYADSVKGRFTISRDNAKNTVYLQMNSLKPEDTAVYYCIAKQAGYYFAFGYWGQGTQVTVSS”: the “polyreactivity (PSR sort gate)” value is listed as “high polyreactivity”.

For “QVQLVESGGGLVQAGGSLRLSCAASGRTFRRYAMGWYRQAPGKERELVAASSRGANTNYADSVKGRFTISRDNAKNTFYLQMNSLKPEDTAVYYCNAKQAGYYFAFGYWGQGTQVTVSS”, the “polyreactivity (PSR sort gate)” value is recorded as “high polyreactivity”.

With “QVQLVESGGGLVQAGGSLRLSCAASGRTFRRYAMGWYRQAPGNERELVAAISYNGGRTYYADSVKGRFTISRDNAKNTVYLQMNSLKPEDTAVYYCNARGPSWFGGRYYHWGQGTQVTVSS”, the “polyreactivity (PSR sort gate)” value is “high polyreactivity”.

Consider “QVQLVESGGGLVQAGGSLRLSCAASGRTFRRYTMGWYRQAPGKERELVATISSGGSTYADSVKGRFTISRDNAKNTVYLQMNSLKPEDTAVYYCAARYDVAWYSKRYSWGQGTQVTVSS”, for which the “polyreactivity (PSR sort gate)” value is given as “high polyreactivity”.

As to “QVQLVESGGGLVQAGGSLRLSCAASGRTFRRYTMGWYRQAPGKVRELVAAITTSGGSTYYADSVKGRFTISRDNAKNTVYLQMNRLKPEDTAVYYCAATRRYSGDYWGQGTQVTVSS”, the “polyreactivity (PSR sort gate)” value is “high polyreactivity”.

As for “QVQLVESGGGLVQAGGSLRLSCAASGRTFRRYVMGWYRQAPGKERELVAAISYSGATTYYADSVKGRFTISRDNAKNTVYLQMNSLKPEDTAVYYCAATAPGDRYFWGQGTQVTVSS”, the “polyreactivity (PSR sort gate)” value is “high polyreactivity”.

“QVQLVESGGGLVQAGGSLRLSCAASGRTFRSNAMGGYRQAPGKERELVAAITYSGDRTYYADSVKGRFTISRDNAKNTVYLQMNSLKPEDTAVYDCNKYSRQYTYGYWGQGTQVTVSS”: the “polyreactivity (PSR sort gate)” value is on record as “high polyreactivity”.

For “QVQLVESGGGLVQAGGSLRLSCAASGRTFRSYAMGWYRQAPGKEREFVAAISRSGASTRYADSVKGRFTISRDNAKNTVYLQMNSLKPEDTAVYYCAARYYPWKVNRFSYWYDYWGQGTQVTVSS”, the “polyreactivity (PSR sort gate)” value was “high polyreactivity”.

In the case of “QVQLVESGGGLVQAGGSLRLSCAASGRTFRSYAMGWYRQAPGKERELVAAISYGGGRTFYADSVKGRFTISRDNAKNTVYLQMNSLKPEDTAVYYCNAAFPRSYRFDYWGQGTKVTVSS”, the “polyreactivity (PSR sort gate)” value is listed as “high polyreactivity”.

Consider “QVQLVESGGGLVQAGGSLRLSCAASGRTFRSYAMGWYRQAPGKERELVAAITWGGGRTYYADSVKGRFTISRDNAKNTVYLQMNSLKPEDTAVYYCATRVKFSTSYWLYYWGQGTQVTVSS”, for which the “polyreactivity (PSR sort gate)” value is “high polyreactivity”.

As to “QVQLVESGGGLVQAGGSLRLSCAASGRTFRTNAMGWYRQAPGKERELVAAIRASTGSTYYADSVKGRFTISRDNAKNTVYLQMNSLKPEDTAVYYCAATTQGVRYGYWGQGTQVTVSA”, the “polyreactivity (PSR sort gate)” value is listed as “high polyreactivity”.

Turning to “QVQLVESGGGLVQAGGSLRLSCAASGRTFRTNAMGWYRQEPGKERELVASITWRGDSTYYADSVKGRFTISRDNAKNTVYLQMNRLKPEDTAVYYCAAGGFYWGYLWGRYDYWGQGTQVTVSS”, the “polyreactivity (PSR sort gate)” value is given as “high polyreactivity”.

Turning to “QVQLVESGGGLVQAGGSLRLSCAASGRTFRTNDMGWYRQAPGKERELVARITRGGSTYADSVKGRFTISRDNAKNTVYLHMNSLKPEDTAVYYCAAVTKLSGIRYNYWGQGTQVTVSS”, the “polyreactivity (PSR sort gate)” value is recorded as “low polyreactivity”.

As to “QVQLVESGGGLVQAGGSLRLSCAASGRTFRVNAMGWYRQAPGKERELVAAITSSGGNTYADSVKGRFTISRDNAKNTVYLQMNSLKPEDTAVYYCAAVSSTRGDYWGQGTQVTVSS”, the “polyreactivity (PSR sort gate)” value was “high polyreactivity”.

For the sequence “QVQLVESGGGLVQAGGSLRLSCAASGRTFRVYAMGWYRQAPGKEREFVAAISYSGGRTNYADSVKGRFTISRDNSKNTVYLQMNSLKPEDTAVYYCAARYSWAEGDYWGQGTQVTVSS”, the “polyreactivity (PSR sort gate)” value is listed as “low polyreactivity”.

Take “QVQLVESGGGLVQAGGSLRLSCAASGRTFRVYAMGWYRQAPGKEREFVAAITDSGGRTYYADSVKGRFTISRDNAKNTVYLQMNSLKPEDTAVYYCNAYQYYERYDTYLFRYDYWGQGTQVTVSS”: the “polyreactivity (PSR sort gate)” value is reported as “low polyreactivity”.

In the case of “QVQLVESGGGLVQAGGSLRLSCAASGRTFRVYAMGWYRQAPGKERELVAAIRSGGSTNYADSVKGRFTISRDNAKNTVYLQMNSLKPEDTAVYYCAAVYRNNRQGYQFDYWGQGTQVTVSS”, the “polyreactivity (PSR sort gate)” value is “high polyreactivity”.

For “QVQLVESGGGLVQAGGSLRLSCAASGRTFRVYAMGWYRQAPGKERELVAAISRSTGDTYYADSVKGRFTISRDNAKNSVYLLMNRLKPEDTAVYYCAADVPGGEGDYAYEYWGQGTQVTVSS”, the “polyreactivity (PSR sort gate)” value is reported as “low polyreactivity”.

With “QVQLVESGGGLVQAGGSLRLSCAASGRTFRVYAMGWYRQAPGKERELVAAISWSGGTTYYADSVKGRFTISRDNAKNTVYLQMNSLKPEDSAVYYCARRSRGSSYNYWGQGTQVTVSS”, the “polyreactivity (PSR sort gate)” value is reported as “high polyreactivity”.

“QVQLVESGGGLVQAGGSLRLSCAASGRTFRVYAMGWYRQAPGKERELVAAITFNGGSTYYADSVKGRFTISRDNAKNTVYLQMNSLKPEDTAVYYCAAATRRSYDHVQMYYWGQGTQVTVSS”: the “polyreactivity (PSR sort gate)” value was “high polyreactivity”.

As to “QVQLVESGGGLVQAGGSLRLSCAASGRTFRVYVMGWYRQAPGKERELVAAISKSGTSTYYADSVKGRFTISRDNAKNTVYLQMNSLKPEDTAVYYCAAALPGYGDYYYWGQGTQVTVSS”, the “polyreactivity (PSR sort gate)” value is given as “high polyreactivity”.

As to “QVQLVESGGGLVQAGGSLRLSCAASGRTFRWNAIGWYRQAPGKERELVASISSGGRTNYADSVKVRFTISRDNEKNTVYLQMNSLKPEDTAVYYCAKRVSWPQLYDYWGQGTQVTVSS”, the “polyreactivity (PSR sort gate)” value was “high polyreactivity”.

With “QVQLVESGGGLVQAGGSLRLSCAASGRTFRWYAMGWYIQAPGKERELVAAITSGGSTYYADSVKGRFTISRDNAKNTVYLQMNSLKPEDTAVYYCNAVSTSGAFDYWGQGTQVTVSS”, the “polyreactivity (PSR sort gate)” value is “high polyreactivity”.

“QVQLVESGGGLVQAGGSLRLSCAASGRTFRWYAMGWYRQAPGKERELLASITWSGGSTYYADSVKGRFTISRDNAKNTVYLQMNSLKPEDTAVYYCAAVGRQSNYYVDYDYWGQGTQVTVSS”: the “polyreactivity (PSR sort gate)” value is “high polyreactivity”.

Take “QVQLVESGGGLVQAGGSLRLSCAASGRTFRWYAMGWYRQAPGKERELVAAITGGGRTYYADSVKGSFTISRDYAKNTVYLQMNSLKPEDTAVYYCNKYPSSGNYINAYDYWGQGTQVTVSS”: the “polyreactivity (PSR sort gate)” value is recorded as “high polyreactivity”.

With “QVQLVESGGGLVQAGGSLRLSCAASGRTFRWYAMGWYRQAPGKERELVARITYSGGSTYYADSVKGRFTISRDNAKNTVYLQMNSLKPEDTAVYYCAAKRYTGSSSIYYYWGQGTQVTVSS”, the “polyreactivity (PSR sort gate)” value is “high polyreactivity”.

On to “QVQLVESGGGLVQAGGSLRLSCAASGRTFRWYAMGWYRQAPGKERELVATITSGGSTNYADSVKGRFTISRDNAKNTVYLQMNSLKPEDTAVYYCAAWSYAYYYRLRYVSHDYWGQGTQVTVSS”, for which the “polyreactivity (PSR sort gate)” value is recorded as “high polyreactivity”.

Regarding “QVQLVESGGGLVQAGGSLRLSCAASGRTFRWYGMGWYRQAPGKEREFVAAISFRGGTTYYADSVKGRFTISRDNAKNTVYLQMNSLKPEDTAVYYCAARYGYYTSDYKYYYWGQGTQVTVSS”, the “polyreactivity (PSR sort gate)” value is “high polyreactivity”.

As for “QVQLVESGGGLVQAGGSLRLSCAASGRTFRWYPMGWYRHAPGKEREFVARITWSGGRTYYADSVKGRFTISRDNAKNTVYLQMNSLKPEDTADYYCAAYFVGRYRLEYWGQGTQVTVSS”, the “polyreactivity (PSR sort gate)” value is “high polyreactivity”.

In the case of “QVQLVESGGGLVQAGGSLRLSCAASGRTFRYHAMGWYRQAPGKERELVAGISWSGTSTYYADSVKGRFTISRDNAKNTVYLQMNSLKPEDTAVYYCNAVFRYRYDYWGQGTQVTVSS”, the “polyreactivity (PSR sort gate)” value is listed as “high polyreactivity”.
